The record followed here is patent US10556945B2, “Antagonist antibodies directed against calcitonin gene-related peptide and methods using same” (Teva Pharmaceuticals International GmbH, priority 2014, dated 2020).

For this test, the target named is T1, rat α-CGRP (Rattus norvegicus, UniProt P01256).
T1 construct: 1-37 of rat α-CGRP (WT); purchased GenScript Corporation or Global Peptide Services (custom order); host or cells: synthetic peptide
T1 sequence (P01256 83-119 limits assumed): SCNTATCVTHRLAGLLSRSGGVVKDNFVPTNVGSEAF
Briefly: Biacore affinity of antibody G1 and variant Fabs to rat α-CGRP. It counts as binding. The following applies: 37° C.; Fab; screening mode unless underlined. As to the method:
Biacore assay for affinity determination. […] All Biacore assays were conducted in HBS-EP running buffer (10 mM HEPES pH 7.4, 150 mM NaCl, 3 mM EDTA, 0.005% v/v polysorbate P20). CGRP surfaces were prepared by diluting the N-biotinylated CGRP to a concentration of less than 0.001 mg/mL into HBS-EP buffer and injecting it across the SA sensor chip using variable contact times. Low capacity surfaces, corresponding to capture levels <50 response units (RU) were used for high-resolution kinetic studies, whereas high capacity surfaces (about 800 RU of captured CGRP) were used for concentration studies, screening, and solution affinity determinations. […] Samples were typically injected for 1 minute at 100 μL/min and dissociation times of at least 10 minutes were allowed. After each binding cycle, surfaces were regenerated with 25 mM NaOH in 25% v/v ethanol, which was tolerated over hundreds of cycles. […]
High-resolution analysis of binding interactions with extremely slow offrates. […] The association rate constant (kon) was determined by injecting a 2-fold titration series (in duplicate) spanning 550 nM-1 nM for 30 sec at 100 uL/min and allowing only a 30 sec dissociation phase. The dissociation rate constant (koff) was determined by injecting three concentrations (high, medium, and low) of the same titration series in duplicate for 30 sec and allowing a 2-hour dissociation phase. […]
(In general: Surface plasmon resonance follows binding to a sensor surface in real time, without labels.)

B1: M84: G1 variant: L1 R28N T30V; L2 A51H L56T; H2 E54N A57N; HC-FW3 L99T A100V (antibody, V domains shown)
VH: EVQLVESGGGLVQPGGSLRLSCAASGFTFSNYWISWVRQAPGKGLEWVAEIRSNSDNSATHYAEAVKGRFTISRDNAKNSLYLQMNSLRAEDTAVYYCTVYFDYGLAIQNYWGQGTLVTVSS
VL: EIVLTQSPATLSLSPGERATLSCKASKNVVTYVSWYQQKPGQAPRLLIYGHSNRYTGIPARFSGSGSGTDFTLTISSLEPEDFAVYYCSQSYNYPYTFGQGTKLEIK
Take B1: the α-rat koff stood at 0.0176 s⁻¹.
